Tests used:
[1] = biological target: T1, soluble recombinant human DEC-205 fusion protein (DEC-205 extracellular domain comprising all ten … (human)); test: SPR (Biacore 2000), DEC-205 fusion protein amine-coupled to CM5 chip, antibody flowed, 1:1 Langmuir fit, mean of two series
T1 chain: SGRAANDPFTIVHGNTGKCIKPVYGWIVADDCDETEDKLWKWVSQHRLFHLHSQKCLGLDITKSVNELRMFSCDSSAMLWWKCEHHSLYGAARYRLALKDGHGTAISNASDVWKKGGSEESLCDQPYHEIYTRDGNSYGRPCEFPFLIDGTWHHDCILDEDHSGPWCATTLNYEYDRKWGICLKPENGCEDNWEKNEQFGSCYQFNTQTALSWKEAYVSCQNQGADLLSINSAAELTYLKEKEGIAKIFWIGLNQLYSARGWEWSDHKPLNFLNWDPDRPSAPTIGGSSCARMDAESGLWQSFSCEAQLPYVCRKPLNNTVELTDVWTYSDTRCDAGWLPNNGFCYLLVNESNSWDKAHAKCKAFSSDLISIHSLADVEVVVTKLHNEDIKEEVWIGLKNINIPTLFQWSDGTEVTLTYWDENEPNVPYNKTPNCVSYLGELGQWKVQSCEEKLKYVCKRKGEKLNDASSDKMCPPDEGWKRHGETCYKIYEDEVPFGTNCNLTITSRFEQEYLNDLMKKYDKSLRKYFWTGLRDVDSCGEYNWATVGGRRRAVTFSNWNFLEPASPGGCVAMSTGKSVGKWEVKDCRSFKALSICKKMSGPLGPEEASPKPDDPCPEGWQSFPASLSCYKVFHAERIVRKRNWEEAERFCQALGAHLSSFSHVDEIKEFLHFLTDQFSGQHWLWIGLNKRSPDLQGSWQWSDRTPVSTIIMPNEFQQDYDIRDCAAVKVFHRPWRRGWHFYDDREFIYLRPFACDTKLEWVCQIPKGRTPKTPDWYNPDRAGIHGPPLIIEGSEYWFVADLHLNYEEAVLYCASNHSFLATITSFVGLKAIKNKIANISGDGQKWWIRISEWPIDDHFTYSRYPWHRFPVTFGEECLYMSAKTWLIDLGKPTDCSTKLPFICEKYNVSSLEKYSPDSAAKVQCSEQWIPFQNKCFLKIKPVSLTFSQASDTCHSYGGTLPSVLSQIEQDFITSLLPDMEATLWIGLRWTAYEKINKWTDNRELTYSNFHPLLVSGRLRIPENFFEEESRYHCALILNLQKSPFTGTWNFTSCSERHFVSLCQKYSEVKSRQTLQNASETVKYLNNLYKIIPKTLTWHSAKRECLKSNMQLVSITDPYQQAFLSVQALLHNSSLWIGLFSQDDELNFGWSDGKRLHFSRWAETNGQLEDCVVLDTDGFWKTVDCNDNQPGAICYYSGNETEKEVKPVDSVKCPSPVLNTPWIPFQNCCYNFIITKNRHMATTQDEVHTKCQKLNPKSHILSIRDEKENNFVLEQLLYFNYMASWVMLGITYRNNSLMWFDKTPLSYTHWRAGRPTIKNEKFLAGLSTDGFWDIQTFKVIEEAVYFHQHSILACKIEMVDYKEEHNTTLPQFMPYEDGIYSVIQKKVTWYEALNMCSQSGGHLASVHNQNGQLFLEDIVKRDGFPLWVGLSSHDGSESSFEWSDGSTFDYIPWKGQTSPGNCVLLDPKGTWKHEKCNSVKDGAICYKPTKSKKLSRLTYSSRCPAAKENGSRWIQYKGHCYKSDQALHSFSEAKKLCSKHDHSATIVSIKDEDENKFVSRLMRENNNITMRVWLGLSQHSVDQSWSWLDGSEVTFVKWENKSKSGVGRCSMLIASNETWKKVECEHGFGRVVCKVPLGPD

[2] = biological target: T2, human Dendritic and Epithelial Cell 205 receptor (DEC-205) expressed on cells (human, UniProt O60449 28-1722); test: flow cytometry, human monocyte-derived dendritic cells, saturating antibody, PE goat anti-human IgG Fc [D]
[3] = biological target: T2, human Dendritic and Epithelial Cell 205 …; test: flow cytometry, human monocyte-derived dendritic cells, saturating antibody, PE goat anti-human IgG Fc [F]
[4] = biological target: T2, human Dendritic and Epithelial Cell 205 …; test: flow cytometry, CHO-S cells expressing human DEC-205 against control CHO-S cells, saturating antibody, PE goat anti-human IgG Fc [A]
[5] = biological target: T2, human Dendritic and Epithelial Cell 205 …; test: flow cytometry, human monocyte-derived dendritic cells, saturating antibody, PE goat anti-human IgG Fc [C]

Binder	Ka [1]	Kd [1]	koff [1]	kon [1]	binding result [2]	binding result [3]	binding result [4]	binding result [5]
human anti-DEC-205 monoclonal antibody 5A8-1F1 (antibody, V domains shown) VH: QVQLVESGGGVVQPGRSLRLSCAASGFTFSTYGMHWVRQAPGKGLEWVAIIWYDGGNKYYADSVKGRFTISRDNSKNTLYLQMNSLRAEDTAVYYCARDFYWYFDLWGRGTLVTVSS VL: EIVLTQSPATLSLSPGERATLSCRASQSVSSYLAWYQQKPGQAPRLLIYDASNRATGIPARFSGSGSGTDFTLTISSLEPEDFAVYYCQQRRTFGQGTKVEIK	2.1e+09 M⁻¹	1.5 nM	0.0002 s⁻¹	360000 M⁻¹ s⁻¹	binds	–	–	–
human anti-DEC-205 monoclonal antibody 3C7-3A3 (antibody, V domains shown) VH: QVQLVESGGGVVQPGRSLRLSCAASGFTFSSYNMHWVRQAPGKGLEWVAFIWYDGSNKYYGDSVKGRFTISRDNSKNTLYLQMNSLRAEDTAVYYCAREELGIGWYFDLWGRGTLVTVSS VL: EIVLTQSPATLSLSPGERATLSCRASQSVSSYLAWYQQKPGQAPRLLIYDASNRATGIPARFSGSGSGTDFTLTISSLEPEDFAVYYCQQRRTFGQGTKVEIK	5.2e+08 M⁻¹	5.6 nM	0.00076 s⁻¹	170000 M⁻¹ s⁻¹	–	binds	–	–
human anti-DEC-205 monoclonal antibody 3D6-2F4 (antibody, V domains shown, also called mAb #5) VH: QVQLVESGGGVVQPGRSLRLSCAASGFIFSIYGMHWVRQAPGKGLEWVAVIWYDGSNKYYADSVKGRFTISRDNSKNTLYLQMNSLRAEDTAVYYCARAPHFDYWGQGTLVTVSS VL: DIQMTQSPSSLSASVGDRVTITCRASQGISSWLAWYQQKPEKAPKSLIYAASSLQSGVPSRFSGSGSGTDFTLTISSLQPEDFATYYCQQYNSYPYTFGQGTKLEIK	1.5e+10 M⁻¹	0.08 nM	0.00012 s⁻¹	1.8e+06 M⁻¹ s⁻¹	–	–	binds	–
human anti-DEC-205 monoclonal antibody 3G9-2D2 (antibody, V domains shown) VH: QVQLVESGGGVVQPGRSLRLSCAASGFTFSNYGMYWVRQAPGKGLEWVAVIWYDGSNKYYADSVKGRFTISRDNSKNTLYLQMNSLRAEDTAVYYCARDLWGWYFDYWGQGTLVTVSS VL: EIVLTQSPATLSLSPGERATLSCRASQSVSSYLAWYQQKPGQAPRLLIYDASNRATGIPARFSGSGSGTDFTLTISSLEPEDFAVYYCQQRRNWPLTFGGGTKVEIK	4.7e+09 M⁻¹	0.24 nM	0.00019 s⁻¹	900000 M⁻¹ s⁻¹	–	–	–	binds

Reference: patent publication US20100098704A1 (CELLDEX THERAPEUTICS, published 2010)
